From the supplement of paper PMC7125110
± gives the standard error. This sample holds only a part of the variants without activity.

B1: glmS ribozyme (parent)
chain: AUAAAAGCGCCAGAACUACAGAAAUGUAGUUGACGAGGAGGAGGUUUAUCGAAUUUUCGGCGGAUGCCUCCAAA

How the values were obtained:
Details in all cases: with glucosamine-6-phosphate
glucosamine-6-phosphate [1] = variants of: B1; test: self-cleavage kobs at 40 uM GlcN6P; higher = faster cleavage; RNA array
Method in brief: (§1)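 On sequenced MiSeq chips, barcoded ribozyme variants were made in situ by E. coli RNA polymerase and followed at 37 °C through a hybridised Cy3 probe. Glucosamine-6-phosphate was flowed in at 40 μM to 10 mM in HEPES/KCl/Mg(OAc)2 buffer. Exponential fits to normalised per-tile medians gave kobs, and weighted Michaelis–Menten fits gave kcat and KM.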

glucosamine-6-phosphate [2] = variants of: B1; test: self-cleavage kobs at 2500 uM GlcN6P; higher = faster cleavage; RNA array
Method in brief: as §1

glucosamine-6-phosphate [3] = variants of: B1; test: self-cleavage kobs at 10000 uM GlcN6P; higher = faster cleavage; RNA array
Method in brief: as §1

glucosamine-6-phosphate [4] = variants of: B1; test: self-cleavage kobs at 640 uM GlcN6P; higher = faster cleavage; RNA array
Method in brief: as §1

glucosamine-6-phosphate [5] = variants of: B1; test: self-cleavage kobs at 160 uM GlcN6P; higher = faster cleavage; RNA array
Method in brief: as §1

Row | Variant | self-cleavage kobs at 40 uM GlcN6P (glucosamine-6-phosphate [1]) | self-cleavage kobs at 2500 uM GlcN6P (glucosamine-6-phosphate [2]) | self-cleavage kobs at 10000 uM GlcN6P (glucosamine-6-phosphate [3]) | self-cleavage kobs at 640 uM GlcN6P (glucosamine-6-phosphate [4]) | self-cleavage kobs at 160 uM GlcN6P (glucosamine-6-phosphate [5])
1 | A42C G60U | < 1e-05 s⁻¹ | < 1e-05 s⁻¹ | < 1e-05 s⁻¹ | – | –
2 | A12C G51U | < 1e-05 s⁻¹ | – | – | < 1e-05 s⁻¹ | –
3 | U55C G63U | < 1e-05 s⁻¹ | – | – | – | –
4 | C10A U46G | < 1e-05 s⁻¹ | < 1e-05 s⁻¹ | – | < 1e-05 s⁻¹ | < 1e-05 s⁻¹
5 | C34A G43C | < 1e-05 s⁻¹ | – | < 1e-05 s⁻¹ | < 1e-05 s⁻¹ | < 1e-05 s⁻¹
6 | C10U C11A | < 1e-05 s⁻¹ | – | – | – | < 1e-05 s⁻¹
7 | C34U G59A | < 1e-05 s⁻¹ | < 1e-05 s⁻¹ | – | < 1e-05 s⁻¹ | –
8 | U31G A48U | < 1e-05 s⁻¹ | 8.46e-05 ± 1.6e-05 s⁻¹ | 5.93e-05 ± 2.1e-05 s⁻¹ | – | –
9 | A6G G32U C34U | < 1e-05 s⁻¹ | < 1e-05 s⁻¹ | < 1e-05 s⁻¹ | < 1e-05 s⁻¹ | –
10 | G41C A64C | < 1e-05 s⁻¹ | < 1e-05 s⁻¹ | – | < 1e-05 s⁻¹ | < 1e-05 s⁻¹
11 | C11G G41C C50U | < 1e-05 s⁻¹ | – | – | – | –
12 | G7C U49A | < 1e-05 s⁻¹ | < 1e-05 s⁻¹ | < 1e-05 s⁻¹ | – | < 1e-05 s⁻¹
13 | A6G A33U | < 1e-05 s⁻¹ | < 1e-05 s⁻¹ | – | < 1e-05 s⁻¹ | < 1e-05 s⁻¹
14 | G35C A36G G37A A39G U65A | < 1e-05 s⁻¹ | – | < 1e-05 s⁻¹ | – | –
15 | G9A G44A C67A | < 1e-05 s⁻¹ | – | – | – | –
16 | A36C U65C | < 1e-05 s⁻¹ | < 1e-05 s⁻¹ | < 1e-05 s⁻¹ | – | < 1e-05 s⁻¹
17 | U30C G43U C70A | < 1e-05 s⁻¹ | – | – | – | –
18 | G40A U47G | 8.03e-05 ± 1.9e-05 s⁻¹ | 0.00069 ± 0.00018 s⁻¹ | 0.00267 ± 0.0004 s⁻¹ | 0.000547 ± 0.00011 s⁻¹ | 0.000122 ± 2.3e-05 s⁻¹
19 | C11G G37U A53G | < 1e-05 s⁻¹ | – | – | – | –
20 | A6C G37C A39G G40U G41U | < 1e-05 s⁻¹ | < 1e-05 s⁻¹ | – | < 1e-05 s⁻¹ | < 1e-05 s⁻¹
21 | C34G A48G C68G | 8.52e-05 ± 3.4e-05 s⁻¹ | – | – | – | –
22 | C16G G35U | < 1e-05 s⁻¹ | < 1e-05 s⁻¹ | < 1e-05 s⁻¹ | < 1e-05 s⁻¹ | < 1e-05 s⁻¹
23 | C16G G59U | < 1e-05 s⁻¹ | < 1e-05 s⁻¹ | – | < 1e-05 s⁻¹ | –
